Assay results taken from publication PMC4654454 (ACS chemical biology, 2015).
No end group written: not given here.

T1: human Origin Recognition Complex subunit 1 BAH domain, wild type (human, UniProt Q13415 45-171)
T1 sequence (looked up): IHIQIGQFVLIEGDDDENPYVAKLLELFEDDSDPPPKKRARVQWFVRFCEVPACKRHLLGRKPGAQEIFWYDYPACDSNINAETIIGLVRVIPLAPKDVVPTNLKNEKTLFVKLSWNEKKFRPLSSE

T2: human Origin Recognition Complex subunit 1 BAH domain, R105Q mutant (human, UniProt Q13415 45-171, R105Q)
T2 sequence (looked up): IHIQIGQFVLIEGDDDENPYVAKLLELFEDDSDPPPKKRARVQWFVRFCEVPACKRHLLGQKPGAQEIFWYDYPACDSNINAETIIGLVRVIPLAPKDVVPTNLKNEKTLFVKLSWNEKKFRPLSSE

T3: hORC1 BAH domain, wild type (human, UniProt Q13415 45-171)
T3 sequence: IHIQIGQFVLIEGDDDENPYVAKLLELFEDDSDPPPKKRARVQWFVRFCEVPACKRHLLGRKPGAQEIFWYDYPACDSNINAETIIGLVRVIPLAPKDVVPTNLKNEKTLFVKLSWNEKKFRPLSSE


How the values were obtained:
[1] = target: T1, human Origin Recognition Complex …; experiment: ITC
[2] = target: T2, human Origin Recognition Complex …; experiment: ITC
[3] = target: T3, hORC1 BAH domain, wild type; experiment: EMSA

Kd [1]	Kd [2]	Binder	binding result [3]
8.85 µM	8.33 µM	GAKRHRCVLRDNY (not fully specified (residue 7)) [histone H4(14–25)Kc20me2 peptide]	
		14-bp DNA duplex (dsDNA) DNA 1: GGAGGCCTCCTGCT DNA 2: AGCAGGAGGCCTCC	binds
